The results in this text go back to patent publication US20250197448A1, “CYCLOPEPTIBODIES AND USES THEREOF” (University of Rochester, priority 2022, published 2025).

One assay concerns the target T1, PD-L1 (Homo sapiens, UniProt Q9NZQ7).
T1 construct: poly-histidine (C); made in house
As to the kind of experiment: in vitro PD-L1 binding assay (plate-immobilized PD-L1). The conditions noted are these: Q6 vs. Q12 spacer. As to the method:
Streptavidin Binding Assay. For the streptavidin binding assays, streptavidin-coated plates (Sigma-Aldrich) were used. For the Keap1, Shh and PD-L1 binding assay, target protein was immobilized on microtiter plates by incubating 100 μL of a 4 μM protein solution in PBS buffer overnight at 4° C., followed by decanting the protein solution and blocking with 0.5% bovine serum albumin in PBS for 2 h at room temperature. After washing (3×150 μL of PBS with 0.05% Tween-20), each well was incubated with 100 μL of purified FLAG-tagged cyclopeptibody at varying concentrations for 1 hour at room temperature. After washing three times with wash buffer, each well was incubated with 100 μL of 1:2500 dilution of HRP-conjugate mouse anti-FLAG polyclonal antibody (Sigma-Aldrich) for 1 hour at room temperature. After washing three times with wash buffer, 100 μL of 2.2 mM o-phenylenediamine dihydrochloride, 4.2 mM urea hydrogen peroxide, 100 mM dibasic sodium phosphate, and 50 mM sodium citrate, pH 5.0, were added to each well, followed by measurement of the absorbance at 450 nm after 10-20 min using a Tecan Infinite 1000 plate reader. Equilibrium dissociation constants (Kp) were determined by fitting the dose-response curves to a 1:1 binding isotherm equation via nonlinear regression. using SigmaPlot. Mean values and standard deviations were calculated from experiments performed in triplicate. […]

Assay [1] deals with T2, PD-L1 receptor on MDA-MB-231 cells (Homo sapiens, UniProt Q9NZQ7).
T2 construct: known to express high levels of PD-L1 on their surface; endogenous in cells; host or cells: MDA-MB-231
As to the kind of experiment: flow cytometry of MDA-MB-231 cells, PD-L1 labeling with FITC anti-human IgG Fc. In kind it is cell-based. As to the method:
The cells were then incubated with fluorescein-conjugated anti-human IgG Fc antibody and analyzed by flow cytometry. The same experiment was carried out in parallel using commercially available anti-PD-L1 antibody as positive control and various negative controls.
Flow Cytometry Analysis. […] When confluent, media was aspirated, cells were washed once with 1×DPBS (no calcium, no magnesium) (Gibco). Adherent cells were detached from the petri dish with 1 mL of accutase (Gibco) pre-warmed to 37° C., followed by incubated for 5 min at 37° C. Cells were spun down using centrifugation. Supernatant was removed and cells were washed three times with staining buffer (1×PBS with 0.5% BSA). Cells were resuspended in Eppendorf tubes in 100 μL PBS at a concentration of 107cells per mL. […] Eppendorf tubes were then placed on the platform shaker for gently shaking for 1 hour at room temperature. After 1 hour, cells were spun down using centrifugation, then supernatant was removed. […] Cells were washed as described above, then resuspended in 400 μL staining buffer. […] The cells of interest were gated using Forward and Side scatter (FSC/SSC). 10,000 singlet events were collected for each specimen.

The target in assay [2] is T3, PD-L1 expressed on the surface of MDA-MB-231 cells (Homo sapiens, UniProt Q9NZQ7).
T3 construct: known to express high levels of PD-L1 on their surface; endogenous in cells; host or cells: MDA-MB-231
As to the kind of experiment: confocal microscopy imaging of MDA-MB-231 cells. The conditions noted are these: anti-Fc-FITC staining. In kind it is cell-based. As to the method:
Cyclopeptibodies can be applied for detection and imaging of a target protein in cells and other biological systems. To illustrate this aspect of the invention, breast cancer cells MDA-MB-231 cells were treated with PD-L1 targeting cRK10 (pCaaF)-Tras-Fc. MDA-MB-231 cells are known to express high levels of PD-L1 on the cell membrane. After treatment with cRK10 (pCaaF)-Tras-Fc, the cyclopeptibody bound to the surface PD-L1 was labeled with fluorescein-conjugated anti-human Fc antibody (‘anti-Fc-FITC’) and cells were imaged using confocal microscopy.

Starred links: 1 amine or outer side, 2 acyl side, 3 side chain; linkers in the order of their positions; H or OH if unused. Positions of bridges follow the written chain, without caps; N, C: chain ends. Non-standard residues stand in square brackets, D forms with d. No end group written: not given here. pCaaF = p-(2-chloroacetamido)-phenylalanine, O=C(CCl)Nc1ccc(C[C@H](N[*:1])C(=O)[*:2])cc1

T2 sequence (Q9NZQ7 19-290): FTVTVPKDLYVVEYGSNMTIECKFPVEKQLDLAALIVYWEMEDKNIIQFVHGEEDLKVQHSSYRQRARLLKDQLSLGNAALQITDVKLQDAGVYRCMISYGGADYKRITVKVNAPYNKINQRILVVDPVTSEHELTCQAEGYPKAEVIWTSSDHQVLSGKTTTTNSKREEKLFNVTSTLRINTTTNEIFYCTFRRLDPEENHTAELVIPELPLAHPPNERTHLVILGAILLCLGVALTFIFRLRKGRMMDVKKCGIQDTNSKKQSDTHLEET
T3 sequence (Q9NZQ7 19-290): as above
T1 sequence (Q9NZQ7 19-290): as above

In the case of “FLAG-(GS)2-TYLCGAISLAZKAQIKESL-(Q)6-(Fc)^1-H6 (DYKDDDDKGSGSTYLCGAISLA[pCaaF]KAQIKESLQQQQQQ-{Fc-H6}; thioether 16-23) [cRK10-Tras-Fc]”, in the assay with PD-L1, the “higher PD-L1 binding affinity compared to FLAG-cRK10-Q12-Tras-Fc-His” value is recorded as “six-fold higher”. The “median fluorescence intensity (MFI) relative to positive control” value in assay [1] (MDA-MB-231 cells, 0.09 mg/mL) is recorded as “comparable median fluorescence intensity (MFI) to that of the positive control anti-PD-L1 antibody”. In assay [1] (concentration not given at the place), the “staining / labeling of PD-L1 receptors on MDA-MB-231 cells (in words)” value is “selective labeling of PD-L1 receptors”. Moreover, in assay [2], the “recognition of surface PD-L1 by fluorescent imaging” value is listed as “able to efficiently recognize PD-L1”.
